Data reported in the supplement of paper PMC10567573.

B1: NCK2 (parent)
chain: YVERKNSLKKGSLVKNLKDTLGLG
B2: NECAB1 (parent)
chain: FSPNSPQFNVSGPGLLEEDNQWMT
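Note: lentivirally expressed fusions sorted by FACS into six bins by GFP to DsRed ratio, PSI derived from sequencing read proportions per bin multiplied by bin number.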

Variants of: B1
Assay: protein stability index of a GFP-peptide fusion (GPS, HEK-293T) (PSI 1-6); higher = more stable
Conditions: c terminus: a fixed tail appended
With YVEKKNSLKKGSLVKNLKDTLGLG [R4K] the protein stability index was 2.46.
With YVECKNSLKKGSLVKNLKDTLGLG [R4C] the protein stability index was 1.83.
YVEGKNSLKKGSLVKNLKDTLGLG [R4G] showed a protein stability index of 2.19.
Work on YVEQKNSLKKGSLVKNLKDTLGLG [R4Q] yielded a protein stability index of 2.2.
YVESKNSLKKGSLVKNLKDTLGLG [R4S] gave a protein stability index of 2.26.
Work on YVEPKNSLKKGSLVKNLKDTLGLG [R4P] yielded a protein stability index of 2.2.
YVEIKNSLKKGSLVKNLKDTLGLG [R4I] showed a protein stability index of 1.81.
YVEMKNSLKKGSLVKNLKDTLGLG [R4M] showed a protein stability index of 1.62.
For YVEHKNSLKKGSLVKNLKDTLGLG [R4H], the protein stability index was 2.6.
Work on YVEWKNSLKKGSLVKNLKDTLGLG [R4W] yielded a protein stability index of 1.57.
In the case of YVELKNSLKKGSLVKNLKDTLGLG [R4L], the protein stability index is reported as 1.57.

Variants of: B2
Assay: as above
Conditions: c terminus: a fixed tail appended
In the case of FSPNSPQFNVSGPGLLEEDNQIMT [W22I], the protein stability index is reported as 3.67.
Variant FSPNSPQFNVSGPGLLEEDNQGMT [W22G] has a protein stability index of 3.85.
Variant FSPNSPQFNVSGPGLLEEDNQRMT [W22R] has a protein stability index of 3.93.
In the case of FSPNSPQFNVSGPGLLEEDNQMMT [W22M], the protein stability index is reported as 3.39.
For FSPNSPQFNVSGPGLLEEDNQHMT [W22H], the protein stability index was 3.84.
In the case of FSPNSPQFNVSGPGLLEEDNQFMT [W22F], the protein stability index is reported as 3.59.
For FSPNSPQFNVSGPGLLEEDNQAMT [W22A], the protein stability index was 3.96.
Work on FSPNSPQFNVSGPGLLEEDNQCMT [W22C] yielded a protein stability index of 4.1.
For FSPNSPQFNVSGPGLLEEDNQTMT [W22T], the protein stability index was 3.83.
For FSPNSPQFNVSGPGLLEEDNQYMT [W22Y], the protein stability index was 3.49.
With FSPNSPQFNVSGPGLLEEDNQNMT [W22N] the protein stability index was 4.07.
With FSPNSPQFNVSGPGLLEEDNQSMT [W22S] the protein stability index was 4.03.
In the case of FSPNSPQFNVSGPGLLEEDNQVMT [W22V], the protein stability index is reported as 3.79.
Work on FSPNSPQFNVSGPGLLEEDNQKMT [W22K] yielded a protein stability index of 3.54.
In the case of FSPNSPQFNVSGPGLLEEDNQLMT [W22L], the protein stability index is reported as 3.71.
In the case of FSPNSPQFNVSGPGLLEEDNQQMT [W22Q], the protein stability index is reported as 4.03.
FSPNSPQFNVSGPGLLEEDNQDMT [W22D] gave a protein stability index of 4.65.
FSPNSPQFNVSGPGLLEEDNQPMT [W22P] showed a protein stability index of 4.21.
Variant FSPNSPQFNVSGPGLLEEDNQEMT [W22E] has a protein stability index of 4.42.
Work on FSPNSPQFNVSGPGLLEEDTQWMT [N20T] yielded a protein stability index of 3.19.
FSPNSPQFNVSGPGLLEEDQQWMT [N20Q] gave a protein stability index of 2.84.
For FSPNSPQFNVSGPGLLEEDYQWMT [N20Y], the protein stability index was 2.26.
FSPNSPQFNVSGPGLLEEDRQWMT [N20R] showed a protein stability index of 2.88.
Work on FSPNSPQFNVSGPGLLEEDPQWMT [N20P] yielded a protein stability index of 3.28.
With FSPNSPQFNVSGPGLLEEDVQWMT [N20V] the protein stability index was 2.58.
FSPNSPQFNVSGPGLLEEDWQWMT [N20W] gave a protein stability index of 2.46.
With FSPNSPQFNVSGPGLLEEDSQWMT [N20S] the protein stability index was 2.68.
For FSPNSPQFNVSGPGLLEEDNQWAT [M23A], the protein stability index was 3.66.
In the case of FSPNSPQFNVSGPGLLEEDNQWDT [M23D], the protein stability index is reported as 4.65.
FSPNSPQFNVSGPGLLEEDNQWTT [M23T] gave a protein stability index of 3.
FSPNSPQFNVSGPGLLEEDNQWGT [M23G] showed a protein stability index of 3.66.
With FSPNSPQFNVSGPGLLEEDNQWWT [M23W] the protein stability index was 2.35.
For FSPNSPQFNVSGPGLLEEDNQWLT [M23L], the protein stability index was 2.76.
FSPNSPQFNVSGPGLLEEDNQWIT [M23I] showed a protein stability index of 2.45.
FSPNSPQFNVSGPGLLEEDNQWKT [M23K] gave a protein stability index of 4.15.
With FSPNSPQFNVSGPGLLEEDNQWHT [M23H] the protein stability index was 2.8.
Variant FSPNSPQFNVSGPGLLEEDNQWCT [M23C] has a protein stability index of 2.67.
FSPNSPQFNVSGPGLLEEDNQWFT [M23F] showed a protein stability index of 2.44.
Work on FSPNSPQFNVSGPGLLEEDNQWPT [M23P] yielded a protein stability index of 2.87.
For FSPNSPQFNVSGPGLLEEDNQWRT [M23R], the protein stability index was 3.08.
With FSPNSPQFNVSGPGLLEEDNQWET [M23E] the protein stability index was 4.15.
Work on FSPNSPQFNVSGPGLLEEDNQWVT [M23V] yielded a protein stability index of 2.71.
FSPNSPQFNVSGPGLLEEDNQWQT [M23Q] showed a protein stability index of 3.43.
In the case of FSPNSPQFNVSGPGLLEEDNQWYT [M23Y], the protein stability index is reported as 2.77.
FSPNSPQFNVSGPGLLEEDNQWST [M23S] showed a protein stability index of 3.5.
Variant FSPNSPQFNVSGPGLLEEDNQWNT [M23N] has a protein stability index of 3.45.
FSPNSPQFNVSGPGLLEEDNNWMT [Q21N] gave a protein stability index of 1.84.
FSPNSPQFNVSGPGLLEEDNSWMT [Q21S] showed a protein stability index of 2.15.
FSPNSPQFNVSGPGLLEEDNTWMT [Q21T] gave a protein stability index of 2.41.
FSPNSPQFNVSGPGLLEEDNPWMT [Q21P] gave a protein stability index of 2.
In the case of FSPNSPQFNVSGPGLLEEDNIWMT [Q21I], the protein stability index is reported as 1.95.
With FSPNSPQFNVSGPGLLEEDNVWMT [Q21V] the protein stability index was 1.72.
With FSPNSPQFNVSGPGLLEEDNKWMT [Q21K] the protein stability index was 3.06.
With FSPNSPQFNVSGPGLLEEDNLWMT [Q21L] the protein stability index was 2.08.
FSPNSPQFNVSGPGLLEEDNDWMT [Q21D] gave a protein stability index of 1.97.
FSPNSPQFNVSGPGLLEEDNEWMT [Q21E] gave a protein stability index of 3.69.
With FSPNSPQFNVSGPGLLEEDNHWMT [Q21H] the protein stability index was 2.57.
Variant FSPNSPQFNVSGPGLLEEDNGWMT [Q21G] has a protein stability index of 2.54.
FSPNSPQFNVSGPGLLEEDNCWMT [Q21C] gave a protein stability index of 2.14.
With FSPNSPQFNVSGPGLLEEDNMWMT [Q21M] the protein stability index was 1.84.
In the case of FSPNSPQFNVSGPGLLEEDNAWMT [Q21A], the protein stability index is reported as 2.45.
In the case of FSPNSPQFNVSGPGLLEEDNFWMT [Q21F], the protein stability index is reported as 1.87.
With FSPNSPQFNVSGPGLLEEDNRWMT [Q21R] the protein stability index was 2.28.
In the case of FSPNSPQFNVSGPGLLEEDNYWMT [Q21Y], the protein stability index is reported as 2.29.
Work on FSPNSPQFNVSGPGLLEEDNQWMH [T24H] yielded a protein stability index of 2.99.
Variant FSPNSPQFNVSGPGLLEEDNQWMN [T24N] has a protein stability index of 2.84.
With FSPNSPQFNVSGPGLLEEDNQWML [T24L] the protein stability index was 3.
FSPNSPQFNVSGPGLLEEDNQWMS [T24S] gave a protein stability index of 3.27.
For FSPNSPQFNVSGPGLLEEDNQWMP [T24P], the protein stability index was 2.69.
FSPNSPQFNVSGPGLLEEDNQWMV [T24V] gave a protein stability index of 2.36.
Work on FSPNSPQFNVSGPGLLEEDNQWME [T24E] yielded a protein stability index of 3.92.
Variant FSPNSPQFNVSGPGLLEEDNQWMA [T24A] has a protein stability index of 2.82.
Variant FSPNSPQFNVSGPGLLEEDNQWMW [T24W] has a protein stability index of 1.69.
Variant FSPNSPQFNVSGPGLLEEDNQWMK [T24K] has a protein stability index of 2.37.
In the case of FSPNSPQFNVSGPGLLEEDNQWMI [T24I], the protein stability index is reported as 2.69.
In the case of FSPNSPQFNVSGPGLLEEDNQWMF [T24F], the protein stability index is reported as 1.88.
FSPNSPQFNVSGPGLLEEDNQWMM [T24M] showed a protein stability index of 2.4.
In the case of FSPNSPQFNVSGPGLLEEDNQWMQ [T24Q], the protein stability index is reported as 3.04.
FSPNSPQFNVSGPGLLEEDNQWMC [T24C] showed a protein stability index of 2.91.
Variant FSPNSPQFNVSGPGLLEEDNQWMR [T24R] has a protein stability index of 2.97.
Work on FSPNSPQFNVSGPGLLEEDNQWMD [T24D] yielded a protein stability index of 3.57.
In the case of FSPNSPQFNVSGPGLLEEDNQWMY [T24Y], the protein stability index is reported as 2.57.
FSPNSPQFNVSGPGLLEEDNQWMG [T24G] gave a protein stability index of 3.01.
